In patent publication US7858756B2, “Monoclonal antibodies that selectively recognize methamphetamine and methamphetamine like compounds” (The Board of Trustees of the University of Arkansas, priority 2006, dated 2010):
Where a chain is given by its changes, count along the chain named. Entries after “also recorded” stand apart in the source; their conditions may differ.

Key:
[1] = METH infusion by sc osmotic minipump, serum and brain METH and AMP concentrations after mAb; assay type: in vivo, rat; conditions: for AMP serum concentrations vs pre-mAb levels / METH serum concentrations vs pre-mAb levels: rat serum, 1 min to 24 hr after mAb, FIG. 7
Method: FIG. 7 depicts two graphs showing the effect of mAb6H4 (Panel A) and mAb4G9 (Panel B) on METH (closed circles) and AMP (open circles) concentrations in rat serum. METH was infused using a subcutaneous osmotic minipump and once steady state concentrations were reached, anti-METH mAb was administered. Rats were sacrificed at various time points for determination of serum METH and AMP concentrations.
FIG. 8 depicts two graphs showing the effect of mAb6H4 (Panel A) and mAb4G9 (Panel B) on METH (closed circles) and AMP (open circles) concentrations in the rat brain. METH was infused using a subcutaneous osmotic minipump and once steady state concentrations were reached, anti-METH mAb was administered. Rats were sacrificed at various time points for determination of brain METH and AMP concentrations. One way ANOVA followed by a Dunnett's test was used to compare control and post-mAb METH and AMP values.

[2] = METH drug discrimination model; assay type: in vivo, rats; conditions: 600 mg/kg mAb
Method: (§1) FIG. 6 presents graphs depicting the effect of mAb4G9 on METH discrimination (Panel A) and AMP self-administration (Panel B) in rats. (A) Rats were trained to discriminate […] and METH and then administered mAb4G9. Drug discrimination dose response curves were then determined for METH. (B) (+)AMP self-administration before and after treatment with mAb4G9 (3-4 rats/time point). Dashed lines are used to show the groupings of responding for (+)AMP before and after mAb. *P<0.05 compared to control group before antibody (open circles).
The in vivo effects of mAb4G9 were examined using a drug discrimination model. mAb4G9 appeared to be an effective and long-lasting antagonist of METH effects in this model (FIG. 6A). The mAb4G9 (600 mg/kg) shifted the dose response curves for at least 7 days. On the first and second day after mAb treatment, the dose response curve was shifted about 4- to 6-fold. When tested again at 7 days after mAb4G9 treatment, the dose response curve was still shifted about 2.5 fold.

[3] = RIA, inhibition of [3H]-(+)METH binding to mAb; conditions: RIA IC50 for METH / RIA IC50 for test ligand
Source text: In reference to (+)methamphetamine, the IC50 ratio refers to the ratio of the IC50 for (+)methamphetamine in the presence of labeled (+)methamphetamine to the IC50 for a test ligand in the presence of labeled (+)methamphetamine. The IC50 value is the concentration of test ligand required to inhibit 50% of the labeled (+)methamphetamine binding. For instance, see Table 2 in the Examples.
Determination of immunochemical specificity.

[4] = (+)AMP self-administration, fixed interval (60 sec) paradigm; assay type: in vivo, rats; conditions: 100 mg/kg mAb, 0.03 mg/kg (+)AMP per infusion
Method: as §1
We also tested the ability of mAb4G9 to block (+)AMP self-administration in a model in which rats responded under a fixed interval (60 sec) paradigm for a dose of 0.03 mg/kg (+)AMP per infusion.

[5] = Functional half-life study, 14-day continuous (+)METH infusion, serum concentrations; assay type: in vivo, rats
Method: The best-fit line was determined using a weighted two-compartment pharmacokinetic model.
Serum samples were collected pre-mAb and at time points after mAb administration.

[6] = (+)METH 5.6 mg/kg/day sc minipump, single mAb dose equimolar to body burden

B1: mAb4G9: monoclonal antibody, IgG2b κ, heavy chain SEQ ID NO:25, light chain SEQ ID NO:26, generated against hapten (+)METH MO10-ovalbumin (antibody, listed as Mus musculus)
heavy: EYQLQQSGTVLARPGASVKMSCKASGYTFTSYWMHWVKQRPGQGLEWIGGIYPGNSDTTYNQKFKGKAKLTAVTSTSTAYMELSSLTNEDSAVYYCLYGNYDFDYWGQGTTLTVSSAKTTPPSVYPLAPGCGDTTGSSVTLGCLVKGYFPESVTVTWNSGSLSSSVHTFPALLQSGLYTMSSSVTVPSSTWPSQTVTCSVAHPASSTTVDKKLEPSGPISTINPCPPCKECHKCPAPNLEGGPSVFIFPPNIKDVLMISLTPKVTCVVVDVSEDDPDVQISWFVNNVEVHTAQTQTHREDYNSTIRVVSTLPIQHQDWMSGKEFKCKVNNKDLPSPIERTISKIKGLVRAPQVYILPPPAEQLSRKDVSLTCLVVGFNPGDISVEWTSNGHTEENYKDTAPVLDSDGSYFIYSKLNMKTSKWEKTDSFSCNVRHEGLKNYYLKKTISRSPGK
light: DVQMTQSPSSLSASLGGKVTITCKASQDINKFIAWYQHKPGKGPRLLIHYTSTLQPGIPSRFSGSGSGRDYSFSISNLEPEDIATYYCLQYANLLPWTFGGGTKLEIKRADAAPTVSIFPPSSEQLTSGGASVVCFLNNFYPKDINVKWKIDGSERQNGVLNSWTDQDSKDSTYSMSSTLTLTKDEYERHNSYTCEATHKTSTSPIVKSFNRNEC
AMP brain concentrations vs no mAb group ([1]; rat brain, FIG. 8): reduces both METH and AMP concentrations in the brain; also recorded: significantly decreased at the 5 and 30 min time points
METH brain concentrations vs no mAb group ([1]; rat brain, FIG. 8): reduces both METH and AMP concentrations in the brain; also recorded: significantly decreased METH brain concentrations at all time points
AMP serum concentrations vs pre-mAb levels [1]: repartitions AMP into the serum from other compartments; also recorded: maintains significantly elevated serum METH and AMP concentrations 24 h after administration
METH serum concentrations vs pre-mAb levels [1]: maintains significantly elevated serum METH and AMP concentrations 24 h after administration
AMP serum concentrations vs pre-mAb levels ([1]; listed as MAb4G9): significantly increased METH and AMP serum concentrations from 1 min to 24 hrs
METH serum concentrations vs pre-mAb levels ([1]; listed as MAb4G9): significantly increased METH and AMP serum concentrations from 1 min to 24 hrs
duration of shift of dose response curves [2]: at least 7 days
shift of METH dose response curve ([2]; 7 days after treatment): about 2.5 fold
Antibody Specificity (IC50 ratio as percent), 4-OH-METH [3]: 10.6%
Antibody Specificity (IC50 ratio as percent), (+)AMP [3]: 34%
Antibody Specificity (IC50 ratio as percent), (+)MDA [3]: 9.0%
Antibody Specificity (IC50 ratio as percent), (+)MDMA [3]: 29%
Antibody Specificity (IC50 ratio as percent), (+)METH [3]: 100%
Antibody Specificity (IC50 ratio as percent), (+)ephedrine [3]: <0.1%
Antibody Specificity (IC50 ratio as percent), (+)norpseudoephedrine [3]: <0.1%
Antibody Specificity (IC50 ratio as percent), (+)phenylpropanolamine [3]: <0.1%
Antibody Specificity (IC50 ratio as percent), (+)pseudoephedrine [3]: 0.4%
Antibody Specificity (IC50 ratio as percent), (−)AMP [3]: 6.3%
Antibody Specificity (IC50 ratio as percent), (−)MDA [3]: 0.2%
Antibody Specificity (IC50 ratio as percent), (−)MDMA [3]: 1.1%
Antibody Specificity (IC50 ratio as percent), (−)METH [3]: 10.2%
Antibody Specificity (IC50 ratio as percent), /-phenylphrine [3]: <0.1%
Antibody Specificity (IC50 ratio as percent), dopamine [3]: <0.1%
Antibody Specificity (IC50 ratio as percent), epinephrine [3]: <0.1%
Antibody Specificity (IC50 ratio as percent), norepinepherine [3]: <0.1%
Antibody Specificity (IC50 ratio as percent), serotonin [3]: <0.1%
Antibody Specificity (IC50 ratio as percent), tyramine [3]: <0.1%
Antibody Specificity (IC50 ratio as percent), β-phenylethylamine [3]: 0.1%
number of (+)AMP injections per session [4]: significantly reduced
serum (+)AMP concentrations compared with pre-mAb [5, 6]: maintained significantly increased concentrations
serum (+)METH concentrations compared with pre-mAb [5, 6]: maintained significantly increased concentrations
time after which mAb still very effective ([5]; continuous (+)METH infusion, single mAb dose): about 2 wks

B2: mAb2F11: monoclonal antibody comprising heavy chain SEQ ID NO:19 and light chain SEQ ID NO:21 (antibody, listed as Mus musculus)
heavy: EYQLQQSGTVLARPGASVKMSCKASGYTFTNYWMHWVKQRPGQGLEWIGGIYPGNSDTTYNQKFKGKAKLTAVTSTSTAYMELSSLTNEDSAVYYCLYGNYDFDYWGQGTTLTVSSAKTTAPSVYPLAPVCGDTTGSSVTLGCLVKGYFPEPVTLTWNSGSLSSGVHTFPAVLQSDLYTLSSSVTVTSSTWPSQSITCNVAHPASSTKVDKKIEPRGPTIKPCPPCKCPAPNLLGGPSVFIFPPKIKDVLMISLSPIVTCVVVDVSEDDPDVQISWFVNNVEVHTAQTQTHREDYNSTLRVVSALPIQHQDWMSGKEFKCKVNNKDLPAPIERTISKPKGSVRAPQVYVLPPPEEEMTKKQVTLTCMVTDFMPEDIYVEWTNNGKTELNYKNTEPVLDSDGSYFMYSKLRVEKKNWVERNSYSCSVVHEGLHNHHTTKSFSRTPGK
light: B1 light with V2I, Q27H, I29V, A92T
Antibody Specificity (IC50 ratio as percent), (+)AMP [3]: 33%
Antibody Specificity (IC50 ratio as percent), (+)MDMA [3]: 41%
Antibody Specificity (IC50 ratio as percent), (+)METH [3]: 100%^
Antibody Specificity (IC50 ratio as percent), (−)AMP [3]: 5.3%
Antibody Specificity (IC50 ratio as percent), (−)MDMA [3]: 0.6%
Antibody Specificity (IC50 ratio as percent), (−)METH [3]: 2.2%
